This is an account of results in paper PMC8939775, “Structures of the Omicron Spike trimer with ACE2 and an anti-Omicron antibody” (Science (New York, N.y.), 2022).

The target in this assay is T1, SARS-CoV-2 wildtype (WT) spike extracellular domain trimer (proline substitutions 2P or 6P, mutated furin … (SARS-CoV-2, UniProt P0DTC2)).
T1 construct: also called WT spike trimer
The following applies: both partners purified.

B1: JMB2002 IgG (antibody, V domains shown)
VH: QVQLVQSGAEVKKPGSSVKVSCKASGGTFSSYAISWVRQAPGQGLEWMGRIIPIFGTANYAQKFQGRVTITADESTSTAYMELSSLRSEDTAVYYCASLASYSSGWEDVFDIWGQGTMVTVSS
VL: DIQMTQSPSSLSASVGDRVTITCRASQGISSWLAWYQQKPGKAPKLLIYDASNLETGVPSRFSGSGSGTDFTFTISSLQPEDIATYYCQQYDNLPLTFGGGTKVEIK
notes: copies: 2 + 2
The Kd is the free concentration of one partner at which half of the binding sites on the other are occupied at equilibrium, for simple one-to-one binding. Lower therefore signals higher affinity. For the molecule B1, binding was characterised by a dissociation constant (Kd) of 0.5 ± 0.3 nM.

B2: JMB2002 Fab (Fab, V domains shown)
VH: QVQLVQSGAEVKKPGSSVKVSCKASGGTFSSYAISWVRQAPGQGLEWMGRIIPIFGTANYAQKFQGRVTITADESTSTAYMELSSLRSEDTAVYYCASLASYSSGWEDVFDIWGQGTMVTVSS
VL: DIQMTQSPSSLSASVGDRVTITCRASQGISSWLAWYQQKPGKAPKLLIYDASNLETGVPSRFSGSGSGTDFTFTISSLQPEDIATYYCQQYDNLPLTFGGGTKVEIK
notes: also called Fab from JMB2002
For the molecule B2, the affinity, expressed as Kd, was 12.2 ± 11.6 nM.
